The experiment has as its target AVPR1a (Homo sapiens, UniProt P37288). The experiment is described as follows: 125I-OVTA competition binding, intact CHO cells.

No end group written: not given here.

AVPR1a, sequence (P37288 whole entry): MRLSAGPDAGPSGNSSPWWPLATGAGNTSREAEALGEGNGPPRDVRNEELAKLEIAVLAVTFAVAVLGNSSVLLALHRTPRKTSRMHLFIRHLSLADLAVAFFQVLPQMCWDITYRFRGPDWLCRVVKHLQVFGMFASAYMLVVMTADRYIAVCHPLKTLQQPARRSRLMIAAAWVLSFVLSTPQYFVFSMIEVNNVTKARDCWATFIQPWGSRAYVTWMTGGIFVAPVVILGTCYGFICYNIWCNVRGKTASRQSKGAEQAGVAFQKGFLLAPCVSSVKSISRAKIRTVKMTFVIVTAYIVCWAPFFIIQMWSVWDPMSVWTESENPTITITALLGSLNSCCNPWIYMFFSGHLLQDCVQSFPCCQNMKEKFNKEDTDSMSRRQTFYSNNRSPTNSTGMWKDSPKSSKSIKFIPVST

B1: Pro8-OXT (peptide)
chain: CYIQNCPPG
modifications: not fully specified; cysteine pairing not given here
One may read the Ki as a measure of affinity in units of concentration, obtained from inhibition or displacement. Consider B1, for which the affinity, expressed as Ki, was 8.71 nM.

Values taken from publication PMC6820730 (2019).
